Assay results from paper PMC2900545.

Substrate: CCc1c2c(nc3ccc(O)cc13)-c1cc3c(c(=O)n1C2)COC(=O)[C@]3(O)CC
Experiment: purified protein
Settings: UDPGA

B1: UGT1A1 (Homo sapiens) (protein)
chain: HAGKILLIPVDGSHWLSMLGAIQQLQQRGHEIVVLAPDASLYIRDGAFYTLKTYPVPFQREDVKESFVSLGHNVFENDSFLQRVIKTYKKIKKDSAMLLSGCSHLLHNKELMASLAESSFDVMLTDPFLPCSPIVAQYLSLPTVFFLHALPCSLEFEATQCPNPFSYVPRPLSSHSDHMTFLQRVKNMLIAFSQNFLCDVVYSPYATLASEFLQREVTVQDLLSSASVWLFRSDFVKDYPRPIMPNMVFVGGINCLHQNPLSQEFEAYINASGEHGIVVFSLGSMVSEIPEKKAMAIADALGKIPQTVLWRYTGTRPSNLANNTILVKWLPQNDLLGHPMTRAFITHAGSHGVYESICNGVPMVMMPLFGDQMDNAKRMETKGAGVTLNVLEMTSEDLENALKAVINDKSYKENIMRLSSLHKDRPVEPLDLAVFWVEFVMRHKGAPHLRPAAHDLTWYQYHSLDVIGFLLAVVLTVAFITFKCCAYGYRKCLGKKGRVKKAHKSKTH
Km: 2.5 ± 0.3 µM
